Assay results as given in patent publication US11789019B2 (priority 2014, dated 2023).
“Also recorded” adds a separate entry of the source. Read-outs that look alike come from different tables or passages of the source.

Columns and labels:
[1] = molecular target: recombinant Calnexin (Paracoccidioides brasiliensis Calnexin with C-terminal 6xHis tag, from E. coli) (Paracoccidioides brasiliensis)
1807 cells [2] = format: cell-based, mouse; conditions: calnexin peptide #1 13 amino acid sequence of the named species
[3] = test system: calnexin peptide #1-specific CD4+ T cells; format: in vivo, mouse
[4] = test system: B. dermatitidis strain 26199; format: in vivo, Blastomyces dermatitidis
human CD4+ T cells = experiment: In vitro stimulation and identification of activated human T cells (PBMC, CD154 enrichment, CD137); format: cell-based
1807 cells [5] = experiment: In vivo activation and proliferation of adoptively transferred 1807 cells; conditions: emulsified in complete Freund's adjuvant; CD44, CFSE
[6] = 10 μg/ml, CD137 on CD154 enriched CD4+ cells, positive >3-fold over medium alone

1807 T-cell receptor (Blastomyces-specific TCR transgenic 1807 CD4+ T cells)
activation (CD44) and proliferation (CFSE) of adoptively transferred 1807 cells in vivo [1]: 85%

LVLKSRAKHHAIS (listed as Homo sapiens) [SEQ ID NO: 10, reference compound]
1807 reactive (1807 cells [2]): not reactive

LVLKNEAAHHAIS (listed as Pneumocystis carinii) [Pneumocystis carinii_Rat Form 1]
1807 reactive (1807 cells [2]; listed as SEQ ID NO: 6): not reactive

LVMKSRASHYAIS (Candida albicans) [Candida albicans_5314]
1807 reactive (1807 cells [2]; listed as SEQ ID NO: 9): not reactive

LVVKNPAAHHAIS (Blastomyces dermatitidis of strains 26199, 18808, Er-3, 14081; Histoplasma capsulatum of strains G186AR, Nam1, H88, H143; Aspergillus sp.1 of strain group.1; Arthroderma; listed as Ajellomyces capsulatus, listed as Ajellomyces dermatitidis, listed as Arthroderma benhamiae) [Peptide #1, synthetic 13 aa peptide, residues 103-115 of B. dermatitidis calnexin]
calnexin-specific T cells vs. number of cells in control mice ([3]; delivery via the i.v. route): more than 20 fold
pool of calnexin-specific T cells in the draining lymph nodes and spleen ([3]; delivery via the i.v. route): > 1000 cells
tetramer positive CD4+ T cells per animal ([3]; naïve C57BL/6 mice): 30
protection against infection compared to preceding approaches ([4]; i.v. delivery of calnexin peptide): vaccine efficacy was unchanged

B1: rCalnexin: recombinant Paracoccidioides brasiliensis Calnexin with C-terminal 6×His tag expressed in E. coli, 63 kD (protein)
chain: MRLNASLASLILSSIALIGNVHAEDEVKEDATSTSSVIEKPTFTPTTLKAPFLEQFTDGWETRWTPSHAKKEDSKSEEDWAYVGTWAVEEPHVFNGMVGDKGLVVKNPAAHHAISAKFPKKIDNKGKTLVVQYEVKLQNSLNCGGAYMKLLQDNKKLHAEEFSNTSPYVIMFGPDKCGVTNKVHFIFKHKNPKTGEYEEKHMKLPPAVRVSKLSTLYTLIVNPDQSFQIRIDGAAVKNGTLLEDFSPAVNPEKEIDDPEDKKPEDWVDEAHIPDPEATKPEDWDEDAPYEIVDTDATQPEDWLVDEPTSIPDPEAQKPEDWDDEEDGDWIPPTIPNPKCSEVSGCGMWEPPMKKNPEYKGKWTAPMIDNPAYKGPWAPRKIANPNYFEDKTPSNFEPMGAIGFEIWTMQNDILFDNIYIGHSVEDAEKLKAETWDLKHPVEVAEEEAARPKDEEKKEGTLSFKEAPVKYIRGKIELFISLALENPVEAVKAVPEVAGGLGALLVTLVLIIVGAVGLGSPSPAPAAKKQAEKGKEKTAEAVSTAADNVKGEAKKRSGKAGE
immune subjects that responded (human CD4+ T cells; [6]): five of six
non-immune subjects that responded (human CD4+ T cells; [6]): One of four
concentration dependence of CD4+ T cell response (human CD4+ T cells; immune subjects): dose-dependent; also recorded: concentration-dependent manner
frequency of activated (CD154) cells compared with Hsp60 (human CD4+ T cells; immune subjects): similar
response in the presence of polymyxin B (LPS contribution) (human CD4+ T cells; immune subjects): not due to contaminating LPS; also recorded: retained in the presence of polymyxin B
tetramer-positive cells displaying CCR6 or CXCR3 ([3]; draining lymph nodes after vaccination): 15-20%
proportion of CD44+ CD4+ T cells recruited to lung that are tetramer positive ([3]; mouse, in vivo): more than doubles
tetramer positive lung cells that produced IL-17 ([3]; mouse, in vivo): about 50
tetramer-positive cells recruited to the lung that were IL-17 producers ([3]; mouse, in vivo): ~30%
transferred 1807 cells activated and proliferating (1807 cells [5]): > 85%
survival ([4]; in vivo): prolonged survival
